Reference: patent publication US6858428B2, “Human and animal cell culture medium containing antithrombin III for suppressing cell death” (Agency of Industrial Science and Technology, priority 1999, dated 2005)
Entries after “also recorded” stand apart in the source; their conditions may differ.

Assays:
[1] = test system: hepatoma cell line HepG2; assay: Survival of hepatoma cell line HepG2 in serum-free culture (viable cell count after 3 days); type: cell-based; conditions: for Survival rate: HepG2, DMEM without fetal bovine serum; for Effect in controlling cell death (in words): HepG2, serum-free medium
Protocol: Two mL cell suspension of hepatoma cell line HepG2 dispersed in trypsin (5×10^5 cells) were inoculated on six multi-well plates and pre-culture by using Dulbecco's modified Eagle medium (DMEM) containing 5% fetal bovine serum, 1.6 g/L sodium hydrogencarbonate, 0.584 g/L L-glutamine, and 0.08 g/L kanamycin sulfate at 37° C. in a 5% CO2 gas phase. […] The viable cell count was assayed after 3 days of culture.
(§1) The hepatoma cell line HepG2 was pre-cultured in the same manner as in Example 1. After 1 day, the broth was recovered, the cell surfaces were washed with serum-free medium, and the culture was continued for another 3 days with the addition of medium containing 5%, 0% fetal bovine serum, or 2 mL of fresh medium comprising antithrombin III added in concentrations ranging from 1 to 25 μg/mL to media containing no fetal bovine serum (0%). The viable cell count was assayed after 3 days of culture.
as §1, with “III or any of-various synthetic protease inhibitors given in Table 4” for “III”, “added” for “added in concentrations ranging from 1 to 25 μg/mL”

[2] = test system: osteoblast cell line ROS; assay: Survival of osteoblast cell line ROS in serum-free culture (viable cell count after 3 days); type: cell-based; conditions: ROS osteoblasts
Protocol: Two mL cell suspension of osteoblast cell line ROS dispersed in trypsin (5×10^5 cells) were inoculated on six multi-well plates and pre-cultured by using Dulbecco's modified Eagle medium (DMEM) containing 10% fetal bovine serum, 1.6 g/L sodium hydrogencarbonate, 0.584 g/L L-glutamine, and 0.08 g/L kanamycin sulfate at 37° C. in a 5% CO2 gas phase. After one day, the broth was recovered, the cell surfaces were washed with serum-free medium, and the culture was continued for another 3 days with the addition of medium containing 10%, 0% fetal bovine serum, or 2 mL of fresh medium comprising 13 μg/mL antithrombin III added to media containing no fetal bovine serum (0%). The viable cell count was assayed after 3 days of culture.

Molecule | Survival rate ([1]; additive 50 ng/ml) | Survival rate ([1]; additive 1 μg/ml) | Survival rate ([1]; additive 2.5 μg/ml) | Survival rate ([1]; additive 5 μg/ml) | Survival rate ([1]; additive 10 μg/ml) | Survival rate ([1]; additive 17.5 μg/ml) | Survival rate ([1]; additive 25 μg/ml) | Effect in controlling cell death (in words) ([1]; additive 1 μg/mL) | Effect in controlling cell death (in words) ([1]; additive 2.5 μg/mL (so in the source)) | Effect in controlling cell death (in words) ([1]; additive 25 μg/mL) | Effect in controlling cell death (in words) ([1]; concentration not given) | Survival rate ([2]; DMEM without fetal bovine serum, additive 13 μg/ml) | Effect in controlling cell death (in words) ([2]; serum-free medium, additive 13 μg/mL)
EGF: growth factor reported as survival factor (protein, UniProt P01133 23-1207, looked up, Pro-epidermal growth factor) Pro-epidermal growth factor: PQHWSCPEGTLAGNGNSTCVGPAPFLIFSHGNSIFRIDTEGTNYEQLVVDAGVSVIMDFHYNEKRIYWVDLERQLLQRVFLNGSRQERVCNIEKNVSGMAINWINEEVIWSNQQEGIITVTDMKGNNSHILLSALKYPANVAVDPVERFIFWSSEVAGSLYRADLDGVGVKALLETSEKITAVSLDVLDKRLFWIQYNREGSNSLICSCDYDGGSVHISKHPTQHNLFAMSLFGDRIFYSTWKMKTIWIANKHTGKDMVRINLHSSFVPLGELKVVHPLAQPKAEDDTWEPEQKLCKLRKGNCSSTVCGQDLQSHLCMCAEGYALSRDRKYCEDVNECAFWNHGCTLGCKNTPGSYYCTCPVGFVLLPDGKRCHQLVSCPRNVSECSHDCVLTSEGPLCFCPEGSVLERDGKTCSGCSSPDNGGCSQLCVPLSPVSWECDCFPGYDLQLDEKSCAASGPQPFLLFANSQDIRHMHFDGTDYGTLLSQQMGMVYALDHDPVENKIYFAHTALKWIERANMDGSQRERLIEEGVDVPEGLAVDWIGRRFYWTDRGKSLIGRSDLNGKRSKIITKENISQPRGIAVHPMAKRLFWTDTGINPRIESSSLQGLGRLVIASSDLIWPSGITIDFLTDKLYWCDAKQSVIEMANLDGSKRRRLTQNDVGHPFAVAVFEDYVWFSDWAMPSVMRVNKRTGKDRVRLQGSMLKPSSLVVVHPLAKPGADPCLYQNGGCEHICKKRLGTAWCSCREGFMKASDGKTCLALDGHQLLAGGEVDLKNQVTPLDILSKTRVSEDNITESQHMLVAEIMVSDQDDCAPVGCSMYARCISEGEDATCQCLKGFAGDGKLCSDIDECEMGVPVCPPASSKCINTEGGYVCRCSEGYQGDGIHCLDIDECQLGEHSCGENASCTNTEGGYTCMCAGRLSEPGLICPDSTPPPHLREDDHHYSVRNSDSECPLSHDGYCLHDGVCMYIEALDKYACNCVVGYIGERCQYRDLKWWELRHAGHGQQQKVIVVAVCVVVLVMLLLLSLWGAHYYRTQKLLSKNPKNPYEESSRDVRSRRPADTEDGMSSCPQPWFVVIKEHQDLKNGGQPVAGEDGQAADGSMQPTSWRQEPQLCGMGTEQGCWIPVSSDKGSCPQVMERSFHMPSYGTQTLEGGVEKPHSLLSANPLWQQRALDPPHQMELTQ | 54.7% | – | – | – | – | – | – | – | – | – | – | – | –
Antithrombin III: Lyophilized antithrombin III purified from bovine serum (protein, UniProt P41361 33-465, looked up) Antithrombin-III: HRSPVEDVCTAKPRDIPVNPMCIYRSSEKKATEGQGSEQKIPGATNRRVWELSKANSHFATAFYQHLADSKNNNDNIFLSPLSISTAFAMTKLGACNNTLKQLMEVFKFDTISEKTSDQIHFFFAKLNCRLYRKANKSSELVSANRLFGGKSITFNETYQDISEVVYGAKLQPLDFKGNAEQSRLTINQWISNKTEGRITDVIPPQAINEFTVLVLVNTIYFKGLWKSKFSPENTRKELFYKADGESCSVLMMYQESKFRYRRVAESTQVLELPFKGDDITMVLILPKLEKTLAKVEQELTPDMLQEWLDELTETLLVVHMPRFRIEDSFSVKEQLQDMGLEDLFSPEKSRLPGIVAEGRSDLYVSDAFHKAFLEVNEEGSEAAASTVISIAGRSLNSDRVTFKANRPILVLIREVALNTIIFMGRVANPCVD | – | 68.6% | 68.0% | 74.1% | 88.5% | 93.3% | 94.0% | cell death was suppressed | virtually the same survival rate as a serum concentration of 5% | highly effective in controlling cell death | virtually the same survival rate as that of the medium with a 5% serum concentration; also recorded: considerably effective in controlling cell death | 85.5% | considerably effective in controlling cell death
